This note sets out measurements from patent US20130123350, “NUCLEIC ACID MOLECULE CAPABLE OF BINDING TO c-MET AND USE THEREOF” (KANAGAWA PREFECTURAL HOSPITAL ORGANIZATION, published 2013).

Data set [1] deals with T1, rec-cMet (Recombinant Human HGF R/c-MET/Fc Chimera) (Homo sapiens, UniProt P08581;P08581 SEQ:1-283,SEQ:1-625). The data set is described as follows: SPR; best fluorinated binder; rec-cMet 60 nM. The note with it: tags: C-terminal HIEGRMD linker, human IgG Fc (100-330), 6xHis; R&D Systems; chain copies: 2 (inferred, Fc chimera). The source says:
The binding ability of each of the RNA aptamers to the rec-cMet was examined in the same manner as in Example 5, except that the fluorinated RNA aptamers were used. The concentration of the rec-cMet was set to 60 nmol/L. With the time point at which the introduction of the rec-cMet to the chip was started being 0 seconds, introduction of a buffer was started 60 seconds later. As a comparative example, the same negative control as in Example 6 was used.
FIG. 12 is a graph showing the binding ability of each of the RNA aptamers to the rec-cMet. In FIG. 12, the vertical axis indicates the signal intensity (RU) measured with BIACORE (registered trademark) X. The signal intensity shown in the graph is a value measured at the 60th second when the buffer was introduced. […] By fluorination, these RNA aptamers had acquired RNase resistance and they also maintained the bonding force to the c-Met. Thus, it can be seen that these fluorinated RNA aptamers are particularly suitable for use in vivo and in vitro. All the RNA aptamers maintained equivalent signal values subsequent to the 60th second. Thus, it was confirmed that no decrease in binding ability occurred.
(In general: In SPR one partner is held on a chip, and binding of the other changes the refractive index at the surface.)

Data set [2] concerns the target T1, rec-cMet (Recombinant Human HGF …). Nature of the data set: ELONA; high binding; 3' polyA20/biotin-polyT; also SPR FIG. 11. The note with it: tags: C-terminal HIEGRMD linker, human IgG Fc (100-330), 6xHis; R&D Systems; chain copies: 2 (inferred, Fc chimera). The method, then:
(§1) An anti-IgG antibody (trade name: “Human IgG-Fc Antibody”, Bethyl Laboratories) was adsorbed on a 96-well plate (Iwaki, AGC Techno Glass Co., Ltd., Japan), and then was subjected to blocking using 1% bovine serum albumin. Subsequently, 50 μL of the 1 μg/mL rec-cMet was added to the plate. Further, Tris (20 mmol/L), sodium chloride (100 mmol/L), magnesium acetate (0.1 mmol/L) and Triton (registered trademark)-X100 (0.2%) were added to the plate so that their final concentrations would be as shown in the parentheses. The plate was incubated at room temperature for 3 hours, thus causing the rec-cMet to bind to the plate. After the incubation, the plate was washed three times with a washing solution. The composition of the washing solution was as follows: 20 mmol/L Tris, 100 mmol/L sodium chloride, 0.1 mmol/L magnesium acetate, and 0.2% Triton (registered trademark)-X100. As a control, incubation and washing were carried out in the same manner, except that 50 μL of the washing solution was added instead of 50 μL of the rec-cMet.
(§2) Next, a 20-mer polyadenine (poly A) was added to the 3′ end of each of the RNA aptamers. Thus, poly-A-added RNA aptamers were prepared. […] The plate was then washed, after which a 1-Step Ultra TMB substrate (Thermo Fisher Scientific Inc., USA) was added to the plate to cause color development, and the absorbance at 450 nm was measured.

Data set [3] deals with rec-NGFR (Recombinant Human NGF R/TNFRSF16/Fc Chimera) (Homo sapiens, UniProt P08138 SEQ:1-222). Nature of the data set: ELONA; signal below 40N. The conditions noted are these: tags: C-terminal DIEGRMD linker, human IgG Fc (100-330), 6xHis; R&D Systems; chain copies: 2 (inferred, Fc chimera). On the procedure:
Next, a 20-mer polyadenine (poly A) was added to the 3′ end of each of the RNA aptamers. Thus, poly-A-added RNA aptamers were prepared. Each of the poly-A-added RNA aptamers was denatured, and thereafter, the denatured poly-A-added RNA aptamer was mixed with a 20-mer biotinylated polythymine with its 5′ end being biotinylated (740 nmol/L), tRNA (100 μg/mL), and an RNase inhibitor (0.16 units/mL). As a result, complementary binding occurred between the poly A in the poly-A-added RNA aptamer and the polythymine (poly T) in the biotinylated polythymine, whereby a biotin-labeled RNA aptamer was produced. The biotin-labeled RNA aptamer was added to the plate, and the plate was incubated at 4° C. for 30 minutes. Subsequently, the plate was washed, and 0.1 μg/mL HRP-streptavidin (Thermo Fisher Scientific Inc., USA) was added thereto. The plate was then washed, after which a 1-Step Ultra TMB substrate (Thermo Fisher Scientific Inc., USA) was added to the plate to cause color development, and the absorbance at 450 nm was measured.
The binding ability of each of the RNA aptamers to the rec-NGFR was examined in the same manner as in Example 1, except that the rec-NGFR was bound to the plate. Also, as a comparative example, the 40N was used, and the binding ability thereof was examined in the same manner.

Data set [4] has as its target T1, rec-cMet (Recombinant Human HGF …). The data set is described as follows: ELONA; high binding; Table 2 misnumbers as SEQ 45; also SPR FIG. 11. The note with it: tags: C-terminal HIEGRMD linker, human IgG Fc (100-330), 6xHis; R&D Systems; chain copies: 2 (inferred, Fc chimera). On the procedure: as §1, §2

T1 sequence (P08581 25-307, change not shown, chain 1 of 2): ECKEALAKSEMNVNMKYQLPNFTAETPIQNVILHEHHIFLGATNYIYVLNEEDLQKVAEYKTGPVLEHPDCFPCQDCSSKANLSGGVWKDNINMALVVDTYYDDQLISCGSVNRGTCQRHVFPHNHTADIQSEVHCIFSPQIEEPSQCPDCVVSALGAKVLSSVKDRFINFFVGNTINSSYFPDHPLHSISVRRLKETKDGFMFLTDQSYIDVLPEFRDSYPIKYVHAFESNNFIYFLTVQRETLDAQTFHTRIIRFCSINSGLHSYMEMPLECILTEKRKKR
T1 sequence (P08581 308-932, change not shown, chain 2 of 2): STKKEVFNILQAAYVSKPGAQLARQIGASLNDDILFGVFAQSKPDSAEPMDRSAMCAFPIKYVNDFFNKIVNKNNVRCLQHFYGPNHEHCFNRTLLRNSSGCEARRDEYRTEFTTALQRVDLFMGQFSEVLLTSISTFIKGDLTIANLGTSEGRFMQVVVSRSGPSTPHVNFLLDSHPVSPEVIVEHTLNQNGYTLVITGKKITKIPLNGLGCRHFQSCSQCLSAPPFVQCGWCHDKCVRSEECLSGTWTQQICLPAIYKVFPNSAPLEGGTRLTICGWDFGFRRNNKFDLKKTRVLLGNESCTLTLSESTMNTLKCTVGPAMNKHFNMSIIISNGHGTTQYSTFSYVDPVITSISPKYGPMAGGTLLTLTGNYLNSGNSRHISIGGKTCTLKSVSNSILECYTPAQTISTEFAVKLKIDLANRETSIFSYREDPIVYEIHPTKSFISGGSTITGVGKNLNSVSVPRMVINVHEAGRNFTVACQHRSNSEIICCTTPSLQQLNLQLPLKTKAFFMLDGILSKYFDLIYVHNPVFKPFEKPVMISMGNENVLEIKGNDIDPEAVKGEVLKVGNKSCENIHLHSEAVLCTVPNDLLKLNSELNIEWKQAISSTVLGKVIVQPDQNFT
Chain of rec-NGFR (Recombinant Human NGF R/TNFRSF16/Fc Chimera) (P08138 29-250, change not shown): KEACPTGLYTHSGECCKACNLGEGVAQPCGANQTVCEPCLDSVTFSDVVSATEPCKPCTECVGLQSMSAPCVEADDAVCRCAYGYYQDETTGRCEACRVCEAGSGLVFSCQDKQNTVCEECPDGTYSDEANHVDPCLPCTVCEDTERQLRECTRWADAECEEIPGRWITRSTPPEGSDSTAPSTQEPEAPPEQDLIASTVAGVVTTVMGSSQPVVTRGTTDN

B1: g38 2'-F (ssRNA)
RNA: GGGACGCUCACGUACGCUAACCAGGAGCAUUAGACCGGGGAAAGAAGGAGUACCGUCUGGUCAGUGCCUGGACGUGCAGU
modifications: 2'-F on all C and U
As to B1, the binding result in data set [1] is given as “binds”.

B2: g5 (ssRNA)
RNA: GGGACGCUCACGUACGCUAAGCCCAACGAACAUUUUGAGUUUCCAGGCAGCUCAUAGACAUCAGUGCCUGGACGUGCAGU
Take B2: the binding result in data set [2] is reported as “binds”; in data set [3], “no binding”.

B3: g6 (ssRNA)
RNA: GGGACGCUCACGUACGCUAAUCCAGGUGUGGCGAGCCACUGUAAGAGUCGCCGUGAGGAUUCAGUGCCUGGACGUGCAGU
Consider B3, for which the values for the binding result in data set [3] and in data set [4] were “no binding” and “binds”, respectively.
